The source of these data is patent publication US20200247855A1, “THERAPY AND DIAGNOSTICS” (OXFORD UNIVERSITY INNOVATION LIMITED, priority 2017, published 2020).

Entries after “also recorded” stand apart in the source; their conditions may differ.

One assay has as its target T1, CXCL8_HUMAN (Homo sapiens, UniProt P10145).
T1 sequence (P10145 21-99): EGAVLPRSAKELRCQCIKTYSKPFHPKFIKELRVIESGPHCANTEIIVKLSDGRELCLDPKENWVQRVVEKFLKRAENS
The assay can be described thus: Yeast surface display (YSD) FACS binding. More on the design: label (chemical). Conditions: yeast surface display. The method, then:
(§1) Table 1. Tick CKBPs described in PCT/GB2017/050563 and [17]. Tick peptide sequences isolated in yeast surface display fluorescent-activated cell sorting (FACS) screens using a labelled chemokine. Identity with Evasin-1, 4 or 3 was calculated using BLAST. Abbreviations: IXORI—Ixodes ricinus, RHISA—Rhipicephalus sanguineus, AMBMA—Amblyomma maculatum, AMBPA—Amblyomma parvum, AMBTR—Amblyomma triste, AMBAM—Amblyomma americanum, AMBCA—Amblyomma cajennense, RHIPU—Rhipicephalus pulchellus. Table 2A-C. Binding characteristics of tick CKBPs previously disclosed (PCT/GB2017/050563 and [17]). All members of the human chemokine family[164] are listed in column 1. Binding to human chemokines was determined for 14 tick CKBPs using biolayer interferometry (BLI) with calculated Kd shown as Molar (Moles/Litre). Binding data for 17 other novel tick CKBPs was assayed using yeast surface display[17,166],with positive binding results shown as “YES”. For biolayer interferometry, His-tagged purified tick CKBP was bound to a Ni-NINTA sensor on an OctetRed® 384 system, and then binding to each chemokine listed (with the exception of CCL25, CCL26, CXCL16, CXCL17, CXCL4L1, XCL2) was assayed in a cross-binding screen at a chemokine concentration of 300 nM as described. For those chemokines showing binding to a tick CKBP in the cross-binding screen, binding assays were repeated using different doses of chemokine. Association, equilibrium and dissociation data were analysed using Octet software to create corresponding fitted curves, and used to calculate Kd. For yeast surface display, (YSD) background fluorescence was controlled for by using either an empty vector or by omitting the chemokine (i.e. using streptavidin-Alexa647 alone). An arbitrary threshold of >3 fold over background mean fluorescence intensity was chosen to describe confirmed re-tests. Where binding was detected data are indicated as “YES”. […] For yeast surface display data, empty cells represent chemokines that were not tested. Binding data published in relation to previously described tick CKBPs (Evasins-1, 4 and 3) is also shown for comparison in each of FIGS. 2A-C, with the relevant data obtained from publications: [20-22,32]. Table 3: Neutralisation of human chemokines by tick CKBPs previously disclosed (PCT/GB2017/050563 and [17]). Neutralising activity was determined using a quantitative THP1 cell migration assay in a 96-well Boyden chamber with chemokine in the bottom chamber as described. Cells migrating through to the bottom chamber at 4 hours were counted using flow cytometry in a 96 well plate format. IC50 for neutralisation was determined at the chemokine EC80 dose as determined using a range of tick CKBP concentrations. Data was analysed using GraphPad Prism to determine IC50, which is shown as Molar (Moles/Litre). Empty cells represent experiments not done. Table 4—Other previously described tick CKBPs. Tick CKBPs that were also described in PCT/GB2017/050563 and Singh et al. are indicated in “Notes”. Table 5.—Novel tick CKBPs of the invention. Table 6. […] The peptide sequence prefix indicates the identity, and suffix indicate the tick species as follows: AMBCA, Amblyomma cajennense and IXORI, Ixodes ricinus. […] Certain tick peptides e.g. P1074_IXORI were recovered from screens performed with more than one chemokine. Individual yeast clones recovered from the library were re-tested using a FACS (fluorescence activated cell sorting), experiment. The binding of the peptide to the chemokine was assayed by measuring the percent (%), of yeast cells expressing the given peptide that exceeded a background threshold set by measuring the fluorescence of the yeast library pool treated with streptavidin-[…] alone. When more than one independent yeast clone was isolated for a given peptide-chemokine combination, the mean percent shift was calculated and reported in column 3. […]

For another assay, the target named is CCL20_HUMAN (Homo sapiens, UniProt P78556). The assay can be described thus: Yeast surface display (YSD) FACS binding. The method, then: as §1
Chain of CCL20_HUMAN (P78556 27-96): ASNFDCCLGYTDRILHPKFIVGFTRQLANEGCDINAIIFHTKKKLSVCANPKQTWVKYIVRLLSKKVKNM
Another assay has as its target T2, CCL5_HUMAN (Homo sapiens, UniProt P13501).
T2 sequence (P13501 24-91): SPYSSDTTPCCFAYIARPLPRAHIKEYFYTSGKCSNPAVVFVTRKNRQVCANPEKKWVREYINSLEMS
The assay can be described thus: Yeast surface display (YSD) FACS binding. The method, then: as §1

Another assay deals with T3, CCL17_HUMAN (Homo sapiens, UniProt Q92583).
T3 sequence (Q92583 24-94): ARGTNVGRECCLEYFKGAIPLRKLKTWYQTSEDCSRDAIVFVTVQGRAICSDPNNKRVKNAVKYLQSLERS
The assay can be described thus: Yeast surface display (YSD) FACS binding. The method, then: as §1

A further assay has as its target T4, CCL14_HUMAN (Homo sapiens, UniProt Q16627).
T4 sequence (Q16627 20-93): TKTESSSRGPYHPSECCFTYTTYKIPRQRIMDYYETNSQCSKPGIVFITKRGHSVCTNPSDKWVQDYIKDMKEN
The assay can be described thus: Biolayer interferometry (BLI) binding. The method, then: as §1

For the next assay, the target named is T5, CCL8_HUMAN (Homo sapiens, UniProt P80075).
T5 sequence (P80075 24-99): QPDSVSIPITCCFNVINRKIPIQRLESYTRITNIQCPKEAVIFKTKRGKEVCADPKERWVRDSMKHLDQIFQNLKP
Description: Biolayer interferometry (BLI) binding. To be noted: read-out: Kd, CCL8_HUMAN. The method, then:
as §1

The next assay concerns the target T6, CCL4_HUMAN (Homo sapiens, UniProt P13236).
T6 sequence (P13236 24-92): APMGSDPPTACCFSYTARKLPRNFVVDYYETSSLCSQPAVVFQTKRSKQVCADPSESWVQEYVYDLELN
Description: Biolayer interferometry (BLI) binding. The method, then:
as §1

Another assay concerns the target T7, CCL1_HUMAN (Homo sapiens, UniProt P22362).
T7 sequence (P22362 24-96): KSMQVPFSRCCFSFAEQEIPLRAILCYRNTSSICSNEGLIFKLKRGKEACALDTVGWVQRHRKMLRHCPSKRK
The assay can be described thus: Biolayer interferometry (BLI) binding. The method, then: as §1

In another assay the target is T8, CCL18_HUMAN (Homo sapiens, UniProt P55774).
T8 sequence (P55774 21-89): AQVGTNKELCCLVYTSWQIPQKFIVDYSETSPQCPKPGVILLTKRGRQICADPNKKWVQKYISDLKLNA
Description: Biolayer interferometry (BLI) binding. The method, then: as §1

Another assay addresses T9, CCL16_HUMAN (Homo sapiens, UniProt O15467).
T9 sequence (O15467 24-120): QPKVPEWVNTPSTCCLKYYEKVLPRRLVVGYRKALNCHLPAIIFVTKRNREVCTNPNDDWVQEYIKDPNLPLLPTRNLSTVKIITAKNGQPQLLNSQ
The assay can be described thus: Biolayer interferometry (BLI) binding. The method, then: as §1

For the next assay, the target named is T10, CCL4L1_HUMAN (Homo sapiens, UniProt Q8NHW4).
T10 sequence (Q8NHW4 24-92): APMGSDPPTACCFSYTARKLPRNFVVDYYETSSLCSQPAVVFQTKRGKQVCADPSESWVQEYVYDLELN
The assay can be described thus: Biolayer interferometry (BLI) binding. The method, then:
as §1

The target of a further assay is CCL7_HUMAN (Homo sapiens, UniProt P80098). Description: Biolayer interferometry (BLI) binding. The method, then:
as §1

The next assay deals with CCL11_HUMAN (Homo sapiens, UniProt P51671). Description: Biolayer interferometry (BLI) binding. The method, then: as §1
Chain of CCL11_HUMAN (P51671 24-97): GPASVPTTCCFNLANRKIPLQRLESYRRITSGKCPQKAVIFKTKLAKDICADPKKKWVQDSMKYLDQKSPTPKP
The next assay concerns the target T11, CCL3_HUMAN (Homo sapiens, UniProt P10147).
T11 sequence (P10147 24-92): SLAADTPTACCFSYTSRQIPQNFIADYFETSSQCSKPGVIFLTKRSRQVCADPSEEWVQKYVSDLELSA
Description: Biolayer interferometry (BLI) binding. The method, then:
as §1

The next assay deals with CCL3L1_HUMAN (Homo sapiens, UniProt P16619). Description: Biolayer interferometry (BLI) binding. The method, then:
as §1

In a further assay the target is CCL2_HUMAN (Homo sapiens, UniProt P13500). The assay can be described thus: Biolayer interferometry (BLI) binding. The method, then: as §1
Chain of CCL2_HUMAN (P13500 24-99): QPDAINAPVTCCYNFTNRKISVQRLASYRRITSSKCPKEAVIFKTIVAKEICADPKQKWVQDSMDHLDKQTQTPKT
In the next assay the target is CCL13_HUMAN (Homo sapiens, UniProt Q99616). The assay can be described thus: Biolayer interferometry (BLI) binding. The method, then:
as §1

A further assay concerns chemokines. To be noted: list of chemokines bound, from the literature [18,20-22]; cited from earlier work.
For the next assay, the target named is CXCL12_HUMAN (Homo sapiens, UniProt P48061). Description: Yeast surface display (YSD) FACS binding. Conditions: yeast surface display. The method, then:
as §1

Chain of CCL13_HUMAN (Q99616 17-98): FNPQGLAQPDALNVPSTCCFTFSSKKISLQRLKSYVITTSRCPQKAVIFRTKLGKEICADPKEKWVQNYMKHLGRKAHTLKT
Chain of CCL3L1_HUMAN (P16619 24-93): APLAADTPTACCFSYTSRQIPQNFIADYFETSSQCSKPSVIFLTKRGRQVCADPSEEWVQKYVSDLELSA
Chain of CXCL12_HUMAN (P48061 22-93): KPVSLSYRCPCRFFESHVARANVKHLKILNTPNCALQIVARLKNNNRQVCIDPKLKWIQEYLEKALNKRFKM
Chain of CCL7_HUMAN (P80098 24-99): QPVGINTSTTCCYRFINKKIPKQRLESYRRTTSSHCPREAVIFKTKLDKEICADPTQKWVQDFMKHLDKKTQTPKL

B1: P993_AMBPA: tick CKBP, Amblyomma parvum (protein, listed as Amblyomma parvum)
chain: HRHYDPNEPCLIAGLKTPRDALPAGCRYDCMIKKNQKLRDGLLCLDVPEKVVKRMVNYLNYSCPLGTCRKGICKRKHRNVRCQKYPVFYMSPPK
Consider B1, for which the “Binding to CXCL8_HUMAN, YSD” value with CXCL8_HUMAN was “YES (An arbitrary threshold of >3 fold over background mean fluorescence intensity was chosen to describe confirmed re-tests. Where binding was detected data are indicated as “YES”)”. Besides, the “Binding to CCL20_HUMAN, YSD” value with CCL20_HUMAN is on record as “YES (An arbitrary threshold of >3 fold over background mean fluorescence intensity was chosen to describe confirmed re-tests. Where binding was detected data are indicated as “YES”)”. The “Binding to CCL5_HUMAN, YSD” value with CCL5_HUMAN is on record as “YES (An arbitrary threshold of >3 fold over background mean fluorescence intensity was chosen to describe confirmed re-tests. Where binding was detected data are indicated as “YES”)”. Also, the “Binding to CCL17_HUMAN, YSD” value in the assay with CCL17_HUMAN is on record as “YES (An arbitrary threshold of >3 fold over background mean fluorescence intensity was chosen to describe confirmed re-tests. Where binding was detected data are indicated as “YES”)”.

B2: P467_RHIPU: tick CKBP (evasin), Rhipicephalus pulchellus; RPU-01 stated identical (protein, listed as Rhipicephalus pulchellus)
chain: AEKSLDSDSSGEDYELWTQGCPFLVAENRTGFGTTVSCQHNCNGAIEKVPEGEPCYTIGEDGLGRMKLNLPYNCSLGECSGGVCVPNGRSDVCFKRTWEENNKAMA
As to B2, the Kd with CCL14_HUMAN stood at 4.13 nM; with CCL8_HUMAN, 2.85 nM; with CCL4_HUMAN, 13.6 nM; in the assay with CCL1_HUMAN it was 53.4 nM; with CCL18_HUMAN, 16.6 nM; with CCL16_HUMAN it was 14.1 nM. The Kd came to 4.72 nM in the assay with CCL4L1_HUMAN; 2.15 nM in the assay with CCL7_HUMAN; 1.4 nM with CCL11_HUMAN; 0.363 nM with CCL3_HUMAN; 0.524 nM with CCL3L1_HUMAN; 0.001 nM with CCL2_HUMAN. Also, in the assay with CCL13_HUMAN, the Kd was found to be 2.56 nM. Also, in the assay with chemokines, the “Previously described chemokine binding” value is “CCL11, CCL24,; also recorded: CCL26, CCL2,; also recorded: CCL8, CCL7”.

B3: P1252_AMBAM: tick CKBP, Amblyomma americanum (protein, listed as Amblyomma americanum)
chain: RGGAASVPANASIPGCGDAQTTPAAPEDQPKHYVVYRDGNGCEVKIIGTWMTTEDYNCLPDTFRKNRAPHGKVKLPASCKKTCGNAVQNLKDGTPCRKVFGDLGRRRNLIKNGCLVGACQSGLCVSGNRTISCYIPPNSTDTRATPGSFAE
On to B3, for which the “Binding to CCL20_HUMAN, YSD” value in the assay with CCL20_HUMAN was “YES (An arbitrary threshold of >3 fold over background mean fluorescence intensity was chosen to describe confirmed re-tests. Where binding was detected data are indicated as “YES”)”. The “Binding to CCL17_HUMAN, YSD” value with CCL17_HUMAN was “YES (An arbitrary threshold of >3 fold over background mean fluorescence intensity was chosen to describe confirmed re-tests. Where binding was detected data are indicated as “YES”)”.

B4: P1015_AMBCA: tick CKBP, Amblyomma cajennense (protein)
chain: EEAPGPAPGCGEPEPTPPKPRRHGIVTNVNSCNSTILVWNGKEFPALCKVRCPHKSYRVSDFEPCLKFTNRRFLQERKDETPYKCKLGFCRHGTCITSEHSRKVPCKVPADRLDPSE
modifications: Amblyomma cajennense
On to B4, for which the “Binding to CCL20_HUMAN, YSD” value with CCL20_HUMAN is listed as “YES (An arbitrary threshold of >3 fold over background mean fluorescence intensity was chosen to describe confirmed re-tests. Where binding was detected data are indicated as “YES”)”. Besides, the “Binding to CXCL12_HUMAN, YSD” value in the assay with CXCL12_HUMAN is reported as “YES (An arbitrary threshold of >3 fold over background mean fluorescence intensity was chosen to describe confirmed re-tests. Where binding was detected data are indicated as “YES”)”.
